Laboratory results reported in patent publication US12385914B2, “CRY1-clock-BMAL1 complex-disrupting agents and methods of identifying and using same” (The Regents of the University of California, priority 2017, dated 2025).
“Also recorded” adds a separate entry of the source.

Target: T1, CRY1-CLOCK PAS-B domain complex (Mus musculus, UniProt P97784)
T1 construct: His6 (N, cleaved yes); made in house; host or cells: CRY1 PHR: Sf9 insect cells (baculovirus)
T1 sequence (P97784 with tags, fused parts or gaps): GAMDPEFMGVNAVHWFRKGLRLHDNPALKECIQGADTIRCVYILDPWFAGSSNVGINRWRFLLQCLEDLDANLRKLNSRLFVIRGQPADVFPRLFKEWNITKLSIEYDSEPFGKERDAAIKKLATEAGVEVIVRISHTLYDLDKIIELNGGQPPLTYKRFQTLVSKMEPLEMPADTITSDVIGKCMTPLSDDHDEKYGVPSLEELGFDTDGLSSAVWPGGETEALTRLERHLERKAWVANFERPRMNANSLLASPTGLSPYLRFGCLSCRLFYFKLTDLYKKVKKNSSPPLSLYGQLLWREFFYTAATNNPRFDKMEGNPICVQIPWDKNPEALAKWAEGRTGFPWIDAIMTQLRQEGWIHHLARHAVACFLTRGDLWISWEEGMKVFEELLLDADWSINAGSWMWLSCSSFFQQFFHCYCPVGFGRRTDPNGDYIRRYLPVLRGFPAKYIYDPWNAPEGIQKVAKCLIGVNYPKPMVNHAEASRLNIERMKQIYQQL
Assay: Fluorescence polarization (FP)-based displacement assay of labeled CLOCK PAS-B from CRY1 PHR
Assay type: binding
Conditions: 100 μM peptide; 20 nM CLOCK PAS-B probe and 4 μM CRY1 PHR; triplicate wells; FIG. 13
Procedure: Described in this example is a fluorescence polarization (FP)-based displacement assay developed by the inventors for identifying agents that disrupt the CRY1-CLOCK-BMAL1 ternary complex.
CRY1 PHR and CLOCK PAS-B domain fluorescently labeled at its N-terminus were prepared as described in the preceding examples. Equipment/Reagents included the following: Greiner 384 Well Assay Plate, 120 μl rounded square wells, flat bottom, black polystyrene; Envision 2103 Multilabel Reader (2103-0020); Fluorescence Polarization (FP) assay buffer (50 mM Bis-Tris Propane, 100 mM NaCl, 2 mM TCEP, 0.05% Tween-20, 0.5% DMSO, pH 7.5); and GraphPad Prism (version 6 or higher). All assay components were buffer exchanged into FP buffer.
A stock assay mixture of 8 μM CRY1 and 40 nM labeled CLOCK PAS-B was incubated at 4° C. overnight. Equal volumes (half of final well volume) stock assay mixture was dispensed into wells of the Greiner 384 Well Assay Plate, reserving wells for appropriate controls. […] Fluorescence polarization was measured using an Envision 2013 plate reader.
A labeled CLOCK PAS-B-only control of 20 nM was used to determine the G-factor for FP. The G-factor should be variable “G” such that Fluorescence polarization (FP)=1000*(S−G*P)/(S+G*P). […] G=(S/P)*(1−27/1000)/(1+27/1000), with S being the parallel fluorescence intensity, and P being the perpendicular fluorescence intensity. […]

Substance: peptide encoded by CRY1 Exon 11: 23 residue peptide encoded by human CRY1 Exon 11 (residues 530-552), sequence CSQGSG1LHYAHGDSQQTHLLK; positive control inhibitor (CSQGSGILHYAHGDSQQTHLLK; listed as Homo sapiens)
- displacement of CLOCK PAS-B from the CRY1 PHR: displaced CLOCK PAS-B from the CRY1 PHR; also recorded: able to displace CLOCK PAS-B from the CRY1 PHR
